Data from the supplement of paper PMC10567573.

B1: ZER1 (parent)
chain: FDGPEAWGVCEPQREEVEERMWAA

Variants of: B1
Assay: protein stability index of a GFP-peptide fusion (GPS, HEK-293T) (PSI 1-6); higher = more stable
Conditions: c terminus: a fixed tail appended
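Also: lentivirally expressed fusions sorted by FACS into six bins by GFP to DsRed ratio, PSI derived from sequencing read proportions per bin multiplied by bin number.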

Variant	protein stability index
FDGPEAWGVCEPQREEVEEPMWAA [R20P]	2.92
FDGPEAWGVCEPQREEVEEQMWAA [R20Q]	2.77
FDGPEAWGVCEPQREEVEESMWAA [R20S]	2.79
FDGPEAWGVCEPQREEVEETMWAA [R20T]	3.23
FDGPEAWGVCEPQREEVEEVMWAA [R20V]	2.67
FDGPEAWGVCEPQREEVEEWMWAA [R20W]	2.15
FDGPEAWGVCEPQREEVEEYMWAA [R20Y]	2.5
FDGPEAWGVCEPQREEVEERAWAA [M21A]	3.06
FDGPEAWGVCEPQREEVEERCWAA [M21C]	2.46
FDGPEAWGVCEPQREEVEERDWAA [M21D]	3.16
FDGPEAWGVCEPQREEVEEREWAA [M21E]	3.56
FDGPEAWGVCEPQREEVEERFWAA [M21F]	2.24
FDGPEAWGVCEPQREEVEERGWAA [M21G]	3.27
FDGPEAWGVCEPQREEVEERHWAA [M21H]	2.21
FDGPEAWGVCEPQREEVEERIWAA [M21I]	2.63
FDGPEAWGVCEPQREEVEERKWAA [M21K]	2.76
FDGPEAWGVCEPQREEVEERLWAA [M21L]	2.71
FDGPEAWGVCEPQREEVEERNWAA [M21N]	2.2
FDGPEAWGVCEPQREEVEERPWAA [M21P]	2.47
FDGPEAWGVCEPQREEVEERQWAA [M21Q]	2.89
FDGPEAWGVCEPQREEVEERRWAA [M21R]	2.69

Variant	protein stability index
FDGPEAWGVCEPQREEVEERSWAA [M21S]	2.38
FDGPEAWGVCEPQREEVEERTWAA [M21T]	2.4
FDGPEAWGVCEPQREEVEERVWAA [M21V]	3.45
FDGPEAWGVCEPQREEVEERWWAA [M21W]	2.46
FDGPEAWGVCEPQREEVEERYWAA [M21Y]	2.39
FDGPEAWGVCEPQREEVEERMAAA [W22A]	2.79
FDGPEAWGVCEPQREEVEERMCAA [W22C]	3.17
FDGPEAWGVCEPQREEVEERMDAA [W22D]	3.75
FDGPEAWGVCEPQREEVEERMEAA [W22E]	3.79
FDGPEAWGVCEPQREEVEERMFAA [W22F]	2.57
FDGPEAWGVCEPQREEVEERMGAA [W22G]	2.81
FDGPEAWGVCEPQREEVEERMHAA [W22H]	2.62
FDGPEAWGVCEPQREEVEERMIAA [W22I]	2.63
FDGPEAWGVCEPQREEVEERMKAA [W22K]	2.75
FDGPEAWGVCEPQREEVEERMLAA [W22L]	2.42
FDGPEAWGVCEPQREEVEERMMAA [W22M]	2.61
FDGPEAWGVCEPQREEVEERMNAA [W22N]	3.17
FDGPEAWGVCEPQREEVEERMPAA [W22P]	3.57
FDGPEAWGVCEPQREEVEERMQAA [W22Q]	2.73
FDGPEAWGVCEPQREEVEERMRAA [W22R]	3.59
FDGPEAWGVCEPQREEVEERMSAA [W22S]	3.25

Variant	protein stability index
FDGPEAWGVCEPQREEVEERMTAA [W22T]	3.4
FDGPEAWGVCEPQREEVEERMVAA [W22V]	3.44
FDGPEAWGVCEPQREEVEERMYAA [W22Y]	3.73
FDGPEAWGVCEPQREEVEERMWCA [A23C]	2.46
FDGPEAWGVCEPQREEVEERMWDA [A23D]	3.41
FDGPEAWGVCEPQREEVEERMWEA [A23E]	2.44
FDGPEAWGVCEPQREEVEERMWFA [A23F]	2.16
FDGPEAWGVCEPQREEVEERMWGA [A23G]	2.9
FDGPEAWGVCEPQREEVEERMWHA [A23H]	2.58
FDGPEAWGVCEPQREEVEERMWIA [A23I]	2.64
FDGPEAWGVCEPQREEVEERMWKA [A23K]	2.77
FDGPEAWGVCEPQREEVEERMWLA [A23L]	2.23
FDGPEAWGVCEPQREEVEERMWMA [A23M]	3.08
FDGPEAWGVCEPQREEVEERMWNA [A23N]	2.93
FDGPEAWGVCEPQREEVEERMWPA [A23P]	2.66
FDGPEAWGVCEPQREEVEERMWQA [A23Q]	2.61
FDGPEAWGVCEPQREEVEERMWRA [A23R]	2.61
FDGPEAWGVCEPQREEVEERMWSA [A23S]	2.62
FDGPEAWGVCEPQREEVEERMWTA [A23T]	2.67
FDGPEAWGVCEPQREEVEERMWVA [A23V]	2.47
FDGPEAWGVCEPQREEVEERMWWA [A23W]	2.3

Variant	protein stability index
FDGPEAWGVCEPQREEVEERMWYA [A23Y]	2.04
FDGPEAWGVCEPQREEVEERMWAC [A24C]	3.55
FDGPEAWGVCEPQREEVEERMWAD [A24D]	2.88
FDGPEAWGVCEPQREEVEERMWAE [A24E]	2.64
FDGPEAWGVCEPQREEVEERMWAF [A24F]	1.96
FDGPEAWGVCEPQREEVEERMWAG [A24G]	3.03
FDGPEAWGVCEPQREEVEERMWAH [A24H]	2.56
FDGPEAWGVCEPQREEVEERMWAI [A24I]	2.13
FDGPEAWGVCEPQREEVEERMWAK [A24K]	2.78
FDGPEAWGVCEPQREEVEERMWAL [A24L]	2.98
FDGPEAWGVCEPQREEVEERMWAM [A24M]	2.51
FDGPEAWGVCEPQREEVEERMWAN [A24N]	2.76
FDGPEAWGVCEPQREEVEERMWAP [A24P]	3.05
FDGPEAWGVCEPQREEVEERMWAQ [A24Q]	2.86
FDGPEAWGVCEPQREEVEERMWAR [A24R]	2.76
FDGPEAWGVCEPQREEVEERMWAS [A24S]	2.7
FDGPEAWGVCEPQREEVEERMWAT [A24T]	2.49
FDGPEAWGVCEPQREEVEERMWAV [A24V]	2.53
FDGPEAWGVCEPQREEVEERMWAW [A24W]	2.15
FDGPEAWGVCEPQREEVEERMWAY [A24Y]	2.49
